The assay has as its target T1, GS-SplD, recombinant SplD protease containing the Gly-Ser dipeptide at the N-terminus (Staphylococcus aureus strain 8325-4) (UniProt Q2FXC5).
T1 sequence: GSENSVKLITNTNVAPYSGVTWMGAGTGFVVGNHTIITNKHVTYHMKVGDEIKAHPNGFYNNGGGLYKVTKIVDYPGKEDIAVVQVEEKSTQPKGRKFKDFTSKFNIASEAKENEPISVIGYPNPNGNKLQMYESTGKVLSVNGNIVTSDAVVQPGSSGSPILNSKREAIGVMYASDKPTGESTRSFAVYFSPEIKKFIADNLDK

The star is where a group is joined. NH(3-CONH2-4-NO2-Ph) = NC(=O)c1cc(N*)ccc1[N+](=O)[O-]

In the case of {ABZ}-WLTS-{NH(3-CONH2-4-NO2-Ph)-NH2} [ABZ-Trp-Leu-Thr-Ser-ANB-NH2], the Km of hydrolysis of the fluorescence-quenched peptide substrate by wild type SplD was 14.7 µM.

On to {ABZ}-WLVS-{NH(3-CONH2-4-NO2-Ph)-NH2} [ABZ-Trp-Leu-Val-Ser-ANB-NH2], for which the Km of hydrolysis of the fluorescence-quenched peptide substrate by wild type SplD stood at 31.1 µM.

Values taken from article PMC3793935.
